T1: Human RNF43 extracellular domain (amino acids 1-190) with a Flag tag on its C terminus (human, UniProt Q68DV7 24-190)
T1 construct: also called recombinant human RNF43; human RNF43 ECD
T1 sequence: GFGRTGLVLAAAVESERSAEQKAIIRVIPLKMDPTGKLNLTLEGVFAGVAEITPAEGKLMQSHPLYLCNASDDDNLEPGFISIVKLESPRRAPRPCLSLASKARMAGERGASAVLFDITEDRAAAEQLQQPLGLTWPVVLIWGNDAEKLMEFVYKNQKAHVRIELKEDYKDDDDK


Biological target: T1, Human RNF43 extracellular domain (amino …)
Assay: SPR, Biacore T200, antibody captured by anti-human Fc, RNF43 as analyte, pH 7.4, 25 C
Procedure: The affinity of the anti-RNF43 monospecific antibodies towards human RNF43 at pH 7.4 was determined at 25 degrees C. using the Biacore T200 instrument (GE Healthcare). Anti-human Fc (GE Healthcare) was immobilized onto all flow cells of a CM4 sensor chip using an amine coupling kit (GE Healthcare). All antibodies and analytes were prepared in ACES at pH 7.4 containing 20 mM ACES, 150 mM NaCl, 0.05% Tween 20, 0.005% NaN₃. Each antibody was captured onto the sensor surface by anti-human Fc. Antibody capture levels were aimed at 312 resonance unit (RU). Recombinant human RNF43 was injected at 200 nM, 50 nM, and 12.5 nM prepared by a four-fold serial dilution, followed by dissociation. The sensor surface was regenerated each cycle with 3M MgCl2. Binding affinity was determined by processing and fitting the data to a 1:1 binding model using the Biacore T200 Evaluation software, version 2.0 (GE Healthcare).

Kd | koff | kon | Binder
48.6 nM | 0.00944 s⁻¹ | 194000 M⁻¹ s⁻¹ | RNN0246jj (antibody, human IgG1, kappa, N297A, Rabbit variable regions recombined with BS03aHis heavy-chain constant region and hk0MC light-chain constant region; also called anti-RNF43 monospecific antibody) heavy: QSVEESGGRLVTPDETLTLTCTVSGFSLNNYHMIWVRQAPGEGLEYIGFINTGGSAYYANWAKGRFTISKTSTTVDLKITSPTTEDTATYFCASVSWRTDYSFELWGPGTLVTVSSASTKGPSVFPLAPSSRSTSESTAALGCLVKDYFPEPVTVSWNSGALTSGVHTFPAVLQSSGLYSLSSVVTVPSSSLGTKTYTCNVDHKPSNTKVDKRVEPKSCDKTHTCPPCPAPELRRGPKVFLFPPKPKDTLMISRTPEVTCVVVDVSQEDPEVQFNWYVDGVEVHNAKTKPREEQFASTYRVVSVLTVLHQDWLNGKEYKCKVSNKGLPSSIEKTISKAKGQPREPQVYTLPPSREEMTKNQVSLTCLVKGFYPSDIAVEWESNGQPENNYKTTPPYLDSDGSFFLYSKLTVDKSRWQQGNVFSCSVMHEALHNHYTQESLSLSPHHHHHHHH light: AQVLTQTPSPVSAAVGGTVTISCQASQSVYANNRLAWFQQKPGQPPKLLIYSASTLASGVPSRFKGSGSGTQFTLTISGVQCDDAATYYCAGAYTGNIYTFGGGTKVEIKRTVAAPSVFIFPPSDEQLKSGTASVVCLLNNFYPREAKVQWKVDNALQSGNSQESVTEQDSKDCTYSLSSTLTLSKADYEKHKVYACEVTHQGLSSPVTKSFNRGEC
17 nM | 0.0467 s⁻¹ | 2.75e+06 M⁻¹ s⁻¹ | RNN0187jj (antibody, human IgG1, kappa, N297A, Rabbit variable regions recombined with BS03aHis heavy-chain constant region and hk0MC light-chain constant region; also called anti-RNF43 monospecific antibody) heavy: QSLEESGGDLVKPGASLTLTCTASGFSFNSAYYMCWVRQAPGKGLEWIGCIYTGSGSTYYASWAKGRFTISKTSSTTVTLQMTSLTVADTATYFCARSGVSTYYTLWGPGTLVTVSSASTKGPSVFPLAPSSRSTSESTAALGCLVKDYFPEPVTVSWNSGALTSGVHTFPAVLQSSGLYSLSSVVTVPSSSLGTKTYTCNVDHKPSNTKVDKRVEPKSCDKTHTCPPCPAPELRRGPKVFLFPPKPKDTLMISRTPEVTCVVVDVSQEDPEVQFNWYVDGVEVHNAKTKPREEQFASTYRVVSVLTVLHQDWLNGKEYKCKVSNKGLPSSIEKTISKAKGQPREPQVYTLPPSREEMTKNQVSLTCLVKGFYPSDIAVEWESNGQPENNYKTTPPYLDSDGSFFLYSKLTVDKSRWQQGNVFSCSVMHEALHNHYTQESLSLSPHHHHHHHH light: DVVMTQTPSSVSAAVGGTVTIKCQASQSIYSGLAWYQQKPGQPPKLLIYGASTLASGVPSRFKGSGSGTEYTLTISGVQCDDAATYYCQNNYYTPSNGWAFGGGTKVEIKRTVAAPSVFIFPPSDEQLKSGTASVVCLLNNFYPREAKVQWKVDNALQSGNSQESVTEQDSKDCTYSLSSTLTLSKADYEKHKVYACEVTHQGLSSPVTKSFNRGEC
63.5 nM | 0.0458 s⁻¹ | 721000 M⁻¹ s⁻¹ | RNN0193jj (antibody, human IgG1, kappa, N297A, Rabbit variable regions recombined with BS03aHis heavy-chain constant region and hk0MC light-chain constant region; also called anti-RNF43 monospecific antibody) heavy: QSLEESGGDLVKPGASLTLTCTASGFSFSNNYWICWVRQAPGKGPEWIACIYTGDGDTDYASWAKGRFTISKTSSTTVTLQMTSLTAADTATYFCAREAGTVDGVWNYVFNLWGPGTLVTVSSASTKGPSVFPLAPSSRSTSESTAALGCLVKDYFPEPVTVSWNSGALTSGVHTFPAVLQSSGLYSLSSVVTVPSSSLGTKTYTCNVDHKPSNTKVDKRVEPKSCDKTHTCPPCPAPELRRGPKVFLFPPKPKDTLMISRTPEVTCVVVDVSQEDPEVQFNWYVDGVEVHNAKTKPREEQFASTYRVVSVLTVLHQDWLNGKEYKCKVSNKGLPSSIEKTISKAKGQPREPQVYTLPPSREEMTKNQVSLTCLVKGFYPSDIAVEWESNGQPENNYKTTPPYLDSDGSFFLYSKLTVDKSRWQQGNVFSCSVMHEALHNHYTQESLSLSPHHHHHHHH light: AQVLTQTPSPVSAAVGGTVTISCQSSQSVYNDNLAWFQQKPGQPPKLLIYDASTLASGVPSRFKGSGSGTQFTLTISKLQCDDAATYYCQGVYIGHIFTFGGGTKVEIKRTVAAPSVFIFPPSDEQLKSGTASVVCLLNNFYPREAKVQWKVDNALQSGNSQESVTEQDSKDCTYSLSSTLTLSKADYEKHKVYACEVTHQGLSSPVTKSFNRGEC
1.11 nM | 0.00291 s⁻¹ | 2.63e+06 M⁻¹ s⁻¹ | RNN0198oo (antibody, human IgG1, kappa, N297A, V domains shown, Rabbit variable regions recombined with BS03aHis heavy-chain constant region and hk0MC light-chain constant region; also called anti-RNF43 monospecific antibody) VH: QEQLVESGGGLVQPEGSLTLTCKASGLDFSSSYWMCWVRQAPGKGLEWIGCIYTGSSGSTYYASWAKGRFTISKTSSTTVTLQMTSLTAADTATYFCARTGSRYWNYFELWGPGTLVTVSS VL: DVVMTQTPPSVSAAVGGTVTIKCQASQSIYRGLAWYQQKPGQPPNLLIYSASTLASGVPSRFSGSGSGTEYTLTISDLECADAATYYCQSYYYSSSNGWPFGGGTKVEIKR
117 nM | 0.0227 s⁻¹ | 193000 M⁻¹ s⁻¹ | RNN0276oo (antibody, human IgG1, kappa, N297A, V domains shown, Rabbit variable regions recombined with BS03aHis heavy-chain constant region and hk0MC light-chain constant region; also called anti-RNF43 monospecific antibody) VH: QSVEESGGRLVTPGTPLTLTCTVSGFSLSSYAMNWVRQAPGKGLEWIGVIGSSGRTYYASWAKGRFTSSKTSTTVVLKITSPTTEDTATYFCARGPYDSYGDGGVTGDLWGPGTLVTVSS VL: AQVLTQTPSPVSAAVGGTVTINCQSSQSVYNNNNLAWYQQKPGQPPKLLIYRASTLASGVPSRFKGSGSGTQFTLTISGVQCEDAATYYCQGGYDCSSADCDTFGGGTKVEIKR
65.6 nM | 0.131 s⁻¹ | 1.99e+06 M⁻¹ s⁻¹ | RNN0275kk (antibody, human IgG1, kappa, N297A, V domains shown, Rabbit variable regions recombined with BS03aHis heavy-chain constant region and hk0MC light-chain constant region; also called anti-RNF43 monospecific antibody) VH: QSVEESGGRLVTPGTPLTLTCTVSGWTINSYHMCWVRQAPGEGLEWIATITTGGVTFYANWARGRFTISKTSTTVDLKMTSLTAADTATYFCVRGPDYTYFDLWGPGTLVTVSS VL: NVVLTQTPSSVSAAVGGTVTIKCQASQSISDTLAWYQQKPGQPPKLLIYYASDLASGVPSRFSGSGSGTEFTLTINDLECADAATYYCQSYVYSNGIDNTFGGGTKVEIKR
71.1 nM | 0.294 s⁻¹ | 4.14e+06 M⁻¹ s⁻¹ | RNN0191kk (antibody, human IgG1, kappa, N297A, V domains shown, Rabbit variable regions recombined with BS03aHis heavy-chain constant region and hk0MC light-chain constant region; also called anti-RNF43 monospecific antibody) VH: QSLEESGGRLVTPGGSLTLTCTASGFSLSSYAIGWVRQAPGKGLEYVGIIERNDKTAYASWAKGRFTISRTSTTVDLKMTSLTTEDTATYFCARGYLDNSPLWGPGTLVTVSS VL: AIEMTQTPASVSAAVGGTVTINCQSSQSVGDNIWLGWYQQKPGQPPKLLIRYASTLASGVPSRFKGSGSGTQFTLTISDLECDDAATYYCAGAYNGLIYSFGGGTKVEIKR
33.3 nM | 0.0235 s⁻¹ | 704000 M⁻¹ s⁻¹ | RNN0242nn (antibody, human IgG1, kappa, N297A, Rabbit variable regions recombined with BS03aHis heavy-chain constant region and hk0MC light-chain constant region; also called anti-RNF43 monospecific antibody) heavy: QQQLEEYGGDLVQPEGSLTLTCKASGLDFSSSYWMCWVRQAPGKGLEWIACIYTGSSGSTSYASWAKGRFTISKTSSTTVTLQMTSLTAADTATYFCARDYDYTAYAYGIMSLWGPGTLVTVSSASTKGPSVFPLAPSSRSTSESTAALGCLVKDYFPEPVTVSWNSGALTSGVHTFPAVLQSSGLYSLSSVVTVPSSSLGTKTYTCNVDHKPSNTKVDKRVEPKSCDKTHTCPPCPAPELRRGPKVFLFPPKPKDTLMISRTPEVTCVVVDVSQEDPEVQFNWYVDGVEVHNAKTKPREEQFASTYRVVSVLTVLHQDWLNGKEYKCKVSNKGLPSSIEKTISKAKGQPREPQVYTLPPSREEMTKNQVSLTCLVKGFYPSDIAVEWESNGQPENNYKTTPPYLDSDGSFFLYSKLTVDKSRWQQGNVFSCSVMHEALHNHYTQESLSLSPHHHHHHHH light: AEIVMTQTPSSKSAAVGDTVTIKCQASQSITSYLSWYQQKPGQPPKLLIYRASTLASGVPSRFKGSGSGTQFTLTISDLECADAATYYCQSNYGSYSTNYGVTFGGGTKVEIKRTVAAPSVFIFPPSDEQLKSGTASVVCLLNNFYPREAKVQWKVDNALQSGNSQESVTEQDSKDCTYSLSSTLTLSKADYEKHKVYACEVTHQGLSSPVTKSFNRGEC
73.1 nM | 0.106 s⁻¹ | 1.45e+06 M⁻¹ s⁻¹ | RNN0207ii (antibody, human IgG1, kappa, N297A, Rabbit variable regions recombined with BS03aHis heavy-chain constant region and hk0MC light-chain constant region; also called anti-RNF43 monospecific antibody) heavy: QEQLEESGGRLVTPGGSLTLTCTASGFSLSSYVISWVRQAPGEGLEYIGYVSTGGSPYYASWAKGRFTISRTSTAVDLKMTSLTASDTATYFCARYGYLDYSGLDLWGQGTLVTVSSASTKGPSVFPLAPSSRSTSESTAALGCLVKDYFPEPVTVSWNSGALTSGVHTFPAVLQSSGLYSLSSVVTVPSSSLGTKTYTCNVDHKPSNTKVDKRVEPKSCDKTHTCPPCPAPELRRGPKVFLFPPKPKDTLMISRTPEVTCVVVDVSQEDPEVQFNWYVDGVEVHNAKTKPREEQFASTYRVVSVLTVLHQDWLNGKEYKCKVSNKGLPSSIEKTISKAKGQPREPQVYTLPPSREEMTKNQVSLTCLVKGFYPSDIAVEWESNGQPENNYKTTPPYLDSDGSFFLYSKLTVDKSRWQQGNVFSCSVMHEALHNHYTQESLSLSPHHHHHHHH light: AQVLTQTPSSTSTAVGGTVTINCQSSQSVYEYNHLSWFQQKPGQPPKLLIYGASTLASGVPSRFKGSGSGTQFTLTISDLECDDAATYYCQGAYYGVVDTFGGGTKVEIKRTVAAPSVFIFPPSDEQLKSGTASVVCLLNNFYPREAKVQWKVDNALQSGNSQESVTEQDSKDCTYSLSSTLTLSKADYEKHKVYACEVTHQGLSSPVTKSFNRGEC
0.928 nM | 0.00558 s⁻¹ | 6.02e+06 M⁻¹ s⁻¹ | RNN0192nn (antibody, human IgG1, kappa, N297A, Rabbit variable regions recombined with BS03aHis heavy-chain constant region and hk0MC light-chain constant region; also called anti-RNF43 monospecific antibody) heavy: QEQLVESGGGLVQPEGSLTLTCTASGFSFSSRYYMCWVRQAPGKGLEWIGCIYTGSGSTYYASWAKGRVTISKTSSTTVTLQMTSLTAADTATYFCAREAGSFNLWGPGTLVTVSSASTKGPSVFPLAPSSRSTSESTAALGCLVKDYFPEPVTVSWNSGALTSGVHTFPAVLQSSGLYSLSSVVTVPSSSLGTKTYTCNVDHKPSNTKVDKRVEPKSCDKTHTCPPCPAPELRRGPKVFLFPPKPKDTLMISRTPEVTCVVVDVSQEDPEVQFNWYVDGVEVHNAKTKPREEQFASTYRVVSVLTVLHQDWLNGKEYKCKVSNKGLPSSIEKTISKAKGQPREPQVYTLPPSREEMTKNQVSLTCLVKGFYPSDIAVEWESNGQPENNYKTTPPYLDSDGSFFLYSKLTVDKSRWQQGNVFSCSVMHEALHNHYTQESLSLSPHHHHHHHH light: DVVMTQTPASVSEPVGGTVTIKCQASQSIYSGLAWYQQKPGQPPKLLIYSASKLASGVPSRFKGSGSGTEYTLTISDLECADAATYYCQNYYYGISNGWTFGGGTKVEIKRTVAAPSVFIFPPSDEQLKSGTASVVCLLNNFYPREAKVQWKVDNALQSGNSQESVTEQDSKDCTYSLSSTLTLSKADYEKHKVYACEVTHQGLSSPVTKSFNRGEC
